Assay results as given in US20220002363A1, “COMPOSITIONS AND METHODS FOR TREATING PULMONARY DISEASE” (United States Government As Represented By The Department …, priority 2020, published 2022).
Entries after “also recorded” stand apart in the source; their conditions may differ.

Tested on: LPS-treated C57BL/6 mice
Test: Oropharyngeal LPS lung injury model in C57BL/6 mice treated with mut-sFasL
Assay type: in vivo, mouse
Conditions: for pro-injury or pro-inflammatory effects: normal lungs / administered 24 hours after intratracheal LPS, any dose
Protocol: FIGS. 5A-E show the effects of mut-sFasL on markers of lung inflammation in LPS-treated mice. C57BL/6 mice received oropharyngeal instillations of either PBS or LPS, 2.5 μg/mL. Four hours later some of the mice received oropharyngeal instillations of PBS or mut-sFasL at concentrations of 10 and 100 ng/g and were euthanized 24 hours after the initial LPS/PBS instillations (“early” group). Other mice received the PBS or mut-sFasL (same dose range) 24 hours after LPS/PBS and were euthanized 48 hours after the original LPS instillation (“late” group). N=6 for the groups. In the “late” group, treatment with 100 ng/g mut-sFasL reduced BAL total cells (FIG. 5A), lung homogenate MPO activity (FIG. 5B), and the BAL concentrations of TNF-α, MIP-1β and MCP-1 (FIGS. 5C-E). Data were analyzed by 2-way ANOVA with Dunnet's post hoc analysis; comparisons made to 0 ng/mL for each condition. Data are reported as box plots, in which the box depicts the 25th to 75th percentiles and the lines the min to max range. *=P<0.05; **=P<0.01, ***P<0.001.
FIGS. 6A-D show the effects of mut-sFasL in LPS treated mice. C57BL/6 mice received oropharyngeal instillations of either PBS, or LPS, 2.5 μg/mL. Four hours later some of the mice received oropharyngeal instillations of PBS or mut-sFasL at concentrations of 10 and 100 ng/g and were euthanized 24 hours after the initial LPS/PBS instillations (“early” group). Other mice received the PBS or mut-sFasL (same dose range) 24 hours after LPS/PBS and were euthanized 48 hours after the original LPS instillation (“late” group). N=6 for all groups. […] The administration of mut-sFasL had no effect total BAL protein (FIG. 6B), BAL IgM (FIG. 6C) or total lung homogenate caspase 3/7 activity (FIG. 6D). Data are reported as box plots, in which the box depicts the 25th to 75th percentiles and the lines the min to max range. Data were analyzed by 2-way ANOVA with Dunnett's post hoc analysis; comparisons were made to 0 ng/mL for each condition.
Animal studies. Mice were housed in conventional cages with ad libitum access to tap water and standard chow, in humidity-controlled (50%) and temperature-controlled (22° C.-23° C.) rooms with 12 hours/12 hours light/dark cycles. In the morning, male C57BL/6J mice (Jackson Laboratories, Bar Harbor Me.) weighing […] were anesthetized with 4% inhaled isoflurane and randomized to treatment for one oropharyngeal instillations of either PBS, or LPS, 2.5 μg/mL (Sigma-Aldrich, St. Louis Mo.) (Time=0 hr). The PBS group was instilled first to avoid cross-contamination with LPS. The mice were allowed to recover from anesthesia, given full access to food and water. […] Some of the mice received oropharyngeal instillations of mut-sFasL at 4 hr and were euthanized at 24 hr (“early” group). Other mice received oropharyngeal mut-sFasL at 24 hours and were euthanized at 48 hr (“late” group). In both cases, mut-sFasL doses were 0, 30 and 100 ng/mL. The number of mice used per group was 6, and the total number of mice was 54.
Following instillations, the mice were monitored for signs of discomfort every 15 minutes during the first hour, and then every four hours during daytime. The primary monitoring parameters were loss of prone posture, loss of movement with mild physical stimulation, weight loss of >20% (weight was measured once per day) and severe respiratory distress. Secondary monitoring parameters included ruffled fur, nasal or ocular discharge and an abnormal respiratory pattern. The presence of one major parameter or two minor parameters was considered an indication for euthanasia, but no mice met these criteria. […]

[1] = LPS, 24 hr (early group), mut-sFasL 30
[2] = LPS, 24 hr (early group), mut-sFasL 100
[3] = LPS, 48 hr (late group), mut-sFasL 30
[4] = LPS, 48 hr (late group), mut-sFasL 100

B1: mut-sFasL: mutant sFasL molecule in which 8 charged amino acids in the 26 amino acid stalk region were changed to alanine (protein)
chain: QLFALQAALAALAASTSQMATASSLAKQIGHPSPPPEKKELRKVAHLTGKSNSRSMPLEWEDTYGIVLLSGVKYKKGGLVINETGLYFVYSKVYFRGQSCNNLPLSHKVYMRNSKYPQDLVMMEGKMMSYCTTGQMWARSSYLGAVFNLTSADHLYVNVSELSLVNFEESQTFFGLYKL
- BAL cytokine concentration IL-1β [1]: 14.3 ± 10.6
- BAL cytokine concentration KC [1]: 118.4 ± 43.7
- BAL cytokine concentration MIP-1α [1]: 47.9 ± 10.6
- BAL cytokine concentration MIP-2 [1]: 78.0 ± 28.1
- BAL cytokine concentration IL-1β [2]: 18.6 ± 5.5
- BAL cytokine concentration KC [2]: 154.4 ± 94.3
- BAL cytokine concentration MIP-1α [2]: 85.3 ± 20.0
- BAL cytokine concentration MIP-2 [2]: 124.1 ± 29.1
- BAL cytokine concentration IL-1β [3]: 37.8 ± 23.3
- BAL cytokine concentration KC [3]: 113.2 ± 55.8
- BAL cytokine concentration MIP-1α [3]: 154.5 ± 78.7
- BAL cytokine concentration MIP-2 [3]: 146.7 ± 72.7
- BAL cytokine concentration IL-1β [4]: 44.5 ± 23.1
- BAL cytokine concentration KC [4]: 136.9 ± 51.9
- BAL cytokine concentration MIP-1α [4]: 153.9 ± 42.4
- BAL cytokine concentration MIP-2 [4]: 135.7 ± 29.9
- BAL IgM (LPS-induced increase): did not affect; also recorded: had no effect
- BAL total protein (LPS-induced increase): did not affect; also recorded: had no effect
- lung homogenate caspase-3/7 activity (LPS-induced increase): did not affect; also recorded: had no effect
- BAL IL-1β (in words) (LPS-treated mice): increase
- BAL KC (in words) (LPS-treated mice): not affected
- BAL MIP-1α (in words) (LPS-treated mice): increase
- BAL MIP-2 (in words) (LPS-treated mice): not affected
- weight loss (LPS-treated mice, percent change from initial weight): not affected; also recorded: Weight loss was similar regardless of treatment
- BAL cytokine concentration IL-1β (PBS group, mut-sFasL 30): 0.2 ± 0.0
- BAL cytokine concentration KC (PBS group, mut-sFasL 30): 1.2 ± 0.6
- BAL cytokine concentration MIP-1α (PBS group, mut-sFasL 30): 0.08 ± 0.03
- BAL cytokine concentration MIP-2 (PBS group, mut-sFasL 30): 0.1 ± 0.0
- BAL cytokine concentration IL-1β (PBS group, mut-sFasL 100): 0.2 ± 0.1
- BAL cytokine concentration KC (PBS group, mut-sFasL 100): 1.9 ± 0.9
- BAL cytokine concentration MIP-1α (PBS group, mut-sFasL 100): 0.29 ± 0.28
- BAL cytokine concentration MIP-2 (PBS group, mut-sFasL 100): 2.3 ± 2.8
- lung apoptosis or permeability measurements (PBS-treated mice): did not lead to an increase in lung apoptosis or permeability measurements
- effect of early administration (early group (mut-sFasL 4 hours after LPS, euthanized 24 h)): no measurable effect
- BAL concentration of MCP-1 (late group): decrease; also recorded: reduced
- BAL concentration of MIP-1β (late group): decrease; also recorded: reduced
- BAL concentration of TNF-α (late group): decrease; also recorded: reduced
- BAL total cell counts (late group (mut-sFasL 24 h after LPS, euthanized 48 h), 100 ng/mL, 100 ng/g): decreased; also recorded: reduced
- total lung (homogenate) MPO activity (late group, doses of 30 and 100 ng/mL, 100 ng/g): significantly decreased; also recorded: reduced
- pro-injury or pro-inflammatory effects: did not have important pro-injury or pro-inflammatory effects at any dose
- pro-injury or pro-inflammatory effects (listed as sFasL with mutated stalk region): not injurious in normal lungs
